The numbers were not newly measured in paper PMC12805357, “Cooperative ligand binding in a bacterial heme-based oxygen sensor” (The Journal of Biological Chemistry, 2025), which cites them from elsewhere.

The conditions of data set [1]: HemAT-Bs.
On the set-up of data set [2]: method as in earlier work. As to conditions: myoglobins; ref 7 of the supplement (Faulkner et al., 1995).

B1: HemAT-Bs: globin-coupled sensor from Bacillus subtilis, MCP output domain (protein, UniProt O07621 1-432, looked up)
Heme-based aerotactic …: MLFKKDRKQETAYFSDSNGQQKNRIQLTNKHADVKKQLKMVRLGDAELYVLEQLQPLIQENIVNIVDAFYKNLDHESSLMDIINDHSSVDRLKQTLKRHIQEMFAGVIDDEFIEKRNRIASIHLRIGLLPKWYMGAFQELLLSMIDIYEASITNQQELLKAIKATTKILNLEQQLVLEAFQSEYNQTRDEQEEKKNLLHQKIQETSGSIANLFSETSRSVQELVDKSEGISQASKAGTVTSSTVEEKSIGGKKELEVQQKQMNKIDTSLVQIEKEMVKLDEIAQQIEKIFGIVTGIAEQTNLLSLNASIESARAGEHGKGFAVVANEVRKLSEDTKKTVSTVSELVNNTNTQINIVSKHIKDVNELVSESKEKMTQINRLFDEIVHSMKISKEQSGKIDVDLQAFLGGLQEVSRAVSHVAASVDSLVILTEE
For orientation: Kd means the equilibrium constant for the complex coming apart. With B1, in data set [1], the “n (Hill coefficient), O2 binding” value is 0.45. In addition, the dissociation constant (Kd) in data set [1] (read-out: Kd, equilibrium oxygen affinity) is 10 µM.

B2: hhMb: myoglobin comparison protein listed as hhMb in Table S2, literature values (protein, UniProt P68082 2-154, looked up)
Myoglobin: GLSDGEWQQVLNVWGKVEADIAGHGQEVLIRLFTGHPETLEKFDKFKHLKTEAEMKASEDLKKHGTVVLTALGGILKKKGHHEAELKPLAQSHATKHKIPIKYLEFISDAIIHVLHSKHPGDFGADAQGAMTKALELFRNDIAAKYKELGFQG
For the molecule B2, the “Midpoint 1 (mV vs SHE)” value in data set [2] is reported as 37 mV vs SHE.
